Patent US7727950B2, “Methods and reagents for assaying protein kinase activity” (The University of Dundee, priority 2002, dated 2010)

Key:
Test in all cases: Kinetic parameters for peptide phosphorylation, radioactive filter-binding assay
[1] = substrate: CC(C)C[C@H](NC(=O)[C@H](CCCNC(=N)N)NC(=O)[C@H](CCCNC(=N)N)NC(=O)[C@@H](N)CCCNC(=N)N)C(=O)N[C@@H](CO)C(=O)N[C@@H](Cc1ccccc1)C(=O)N[C@@H](C)C(=O)N[C@@H](CCC(=O)O)C(=O)N1CCC[C@H]1C(=O)NCC(=O)O; format: biochemical, bovine; conditions: other: PKG; Standard Substrate = …; 30.0 °C
Excerpt: (§1) Apart from the AMP-activated protein kinase (AMPK, a gift from Drs S. Hawley and D. G. Hardie), cGMP-dependent protein kinase (PKG, a generous gift from Drs Susan Lohmann and Ulrich Walter, University of Wurzburg, Germany) and the catalytic subunit of cyclic AMP-dependent protein kinase (PKA, a gift from Dr C. Smythe), which were isolated from rat liver, bovine lung and bovine heart, respectively, all other protein kinases were expressed as either GST-fusion or His-tagged proteins (by a person, a person, Dr A. Paterson or a person, in this Division). The expressed proteins all corresponded to the human sequences apart from the rat Rho-dependent protein kinase (ROCK-II) and rat mitogen-activated protein kinase (MAPK) activated kinase-1a (MAPKAP-K1a, also called RSK). […]
(§2) All protein kinase assays were linear with respect to time. […] All papers were subsequently washed a further three times in phosphoric acid, once in acetone, then dried and counted for radioactivity. […] The plates were then washed six times (five min per wash) in PBS, 0.1% Tween 20 and binding of the phospho-specific antibody detected by incubating the plates with peroxidase-conjugated anti-sheep antibodies (Pierce). […] Signals were quantitated on LAS-1000IR software (FujiFilm). […]

[2] = substrate: CC(C)C[C@H](NC(=O)[C@@H](NC(=O)[C@H](CCCNC(=N)N)NC(=O)[C@H](C)NC(=O)[C@@H](N)CCCNC(=N)N)[C@@H](C)O)C(=O)N[C@@H](CO)C(=O)N[C@@H](Cc1ccccc1)C(=O)N[C@@H](C)C(=O)N[C@@H](CCC(=O)O)C(=O)N1CCC[C@H]1C(=O)NCC(=O)O; format: biochemical, human; conditions: other: PRAK; Standard Substrate = …; 30.0 °C
Excerpt: as §1, with “RSK). GST-fusion proteins were purified on GSH-agarose (Amersham Pharmacia Biotech, Amersham, UK) and His-tagged proteins on Ni-NTA agarose (Qiagen) essentially according to the manufacturer's instructions. All the protein kinases used in this study are available from Upstate Biotechnology Inc. (Lake Placid, N.Y., USA), apart from the α-isoform of calmodulin-dependent protein kinase II (CaMKII), MAPKAP-K3 and PKG.” for “RSK).”
as §2

[3] = substrate: CC(C)C[C@H](NC(=O)[C@H](CCCCN)NC(=O)[C@@H](N)CCCCN)C(=O)N[C@@H](CC(N)=O)C(=O)N[C@@H](CCCNC(=N)N)C(=O)N[C@H](C(=O)N[C@@H](CC(C)C)C(=O)N[C@@H](CO)C(=O)N[C@@H](Cc1ccccc1)C(=O)N[C@@H](C)C(=O)N[C@@H](CCC(=O)O)C(=O)N1CCC[C@H]1C(=O)NCC(=O)O)[C@@H](C)O; format: biochemical, human; conditions: 30.0 °C
Excerpt: as §1, with “RSK). GST-fusion proteins were purified on GSH-agarose (Amersham Pharmacia Biotech, Amersham, UK) and His-tagged proteins on Ni-NTA agarose (Qiagen) essentially according to the manufacturer's instructions. All the protein kinases used in this study are available from Upstate Biotechnology Inc. (Lake Placid, N.Y., USA), apart from the α-isoform of calmodulin-dependent protein kinase II (CaMKII), MAPKAP-K3 and PKG.” for “RSK).”
as §2

B1: PKG (Bos taurus) (protein)
chain: MSELEEDFAKILMLKEERIKELEKRLSEKEEEIQELKRKLHKCQSVLPVPSTHIGPRTTRAQGISAEPQTYRSFHDLRQAFRKFTKSERSKDLIKEAILDNDFMKNLELSQIQEIVDCMYPVEYGKDSCIIKEGDVGSLVYVMEDGKVEVTKEGVKLCTMGPGKVFGELAILYNCTRTATVKTLVNVKLWAIDRQCFQTIMMRTGLIKHTEYMEFLKSVPTFQSLPEEILSKLADVLEETHYENGEYIIRQGARGDTFFIISKGKVNVTREDSPNEDPVFLRTLGKGDWFGEKALQGEDVRTANVIAAEAVTCLVIDRDSFKHLIGGLDDVSNKAYEDAEAKAKYEAEAAFFANLKLSDFNIIDTLGVGGFGRVELVQLKSEESKTFAMKILKKRHIVDTRQQEHIRSEKQIMQGAHSDFIVRLYRTFKDSKYLYMLMEACLGGELWTILRDRGSFEDSTTRFYTACVVEAFAYLHSKGIIYRDLKPENLILDHRGYAKLVDFGFAKKIGFGKKTWTFCGTPEYVAPEIILNKGHDISADYWSLGILMYELLTGSPPFSGPDPMKTYNIILRGIDMIEFPKKIAKNAANLIKKLCRDNPSERLGNLKNGVKDIQKHKWFEGFNWEGLRKGTLTPPIIPSVASPTDTSNFDSFPEDNDEPPPDDNSGWDIDF
notes: which were isolated from rat liver, bovine lung and bovine heart, respectively; from tissue; host or cells: bovine lung
- Km [1]: 50 µM

B2: PRAK (Homo sapiens) (protein)
chain: MSEESDMDKAIKETSILEEYSINWTQKLGAGISGPVRVCVKKSTQERFALKILLDRPKARNEVRLHMMCATHPNIVQIIEVFANSVQFPHESSPRARLLIVMEMMEGGELFHRISQHRHFTEKQASQVTKQIALALRHCHLLNIAHRDLKPENLLFKDNSLDAPVKLCDFGFAKIDQGDLMTPQFTPYYVAPQVLEAQRRHQKEKSGIIPTSPTPYTYNKSCDLWSLGVIIYVMLCGYPPFYSKHHSRTIPKDMRRKIMTGSFEFPEEEWSQISEMAKDVVRKLLKVKPEERLTIEGVLDHPWLNSTEALDNVLPSAQLMMDKAVVAGIQQAHAEQLANMRIQDLKVSLKPLHSVNNPILRKRKLLGTKPKDSVYIHDHENGAEDSNVALEKLRDVIAQCILPQAGKGENEDEKLNEVMQEAWKYNRECKLLRDTLQSFSWNGRGFTDKVDRLKLAEIVKQVIEEQTTSHESQ
notes: made in house; host or cells: Sf21 insect cells
- Km [2]: 40 µM

B3: S6K1 (Homo sapiens; T412E) (protein)
chain: MRRRRRRDGFYPAPDFRDREAEDMAGVFDIDLDQPEDAGSEDELEEGGQLNESMDHGGVGPYELGMEHCEKFEISETSVNRGPEKIRPECFELLRVLGKGGYGKVFQVRKVTGANTGKIFAMKVLKKAMIVRNAKDTAHTKAERNILEEVKHPFIVDLIYAFQTGGKLYLILEYLSGGELFMQLEREGIFMEDTACFYLAEISMALGHLHQKGIIYRDLKPENIMLNHQGHVKLTDFGLCKESIHDGTVTHTFCGTIEYMAPEILMRSGHNRAVDWWSLGALMYDMLTGAPPFTGENRKKTIDKILKCKLNLPPYLTQEARDLLKKLLKRNAASRLGAGPGDAGEVQAHPFFRHINWEELLARKVEPPFKPLLQSEEDVSQFDSKFTRQTPVDSPDDSTLSESANQVFLGFEYVAPSVLES
notes: as for B2
- Km ([3]; other: S6K1, Standard Substrate = LRRASLG): 6 µM

B4: SGK1 (Homo sapiens; S422D) (protein)
chain: ISQPQEPELMNANPSPPPSPSQQINLGPSSNPHAKPSDFHFLKVIGKGSFGKVLLARHKAEEVFYAVKVLQKKAILKKKEEKHIMSERNVLLKNVKHPFLVGLHFSFQTADKLYFVLDYINGGELFYHLQRERCFLEPRARFYAAEIASALGYLHSLNIVYRDLKPENILLDSQGHIVLTDFGLCKENIEHNSTTSTFCGTPEYLAPEVLHKQPYDRTVDWWCLGAVLYEMLYGLPPFYSRNTAEMYDNILNKPLQLKPNITNSARHLLEGLLQKDRTKRLGAKDDFMEIKSHVFFSLINWDDLINKKITPPFNPNVSGPNDLRHFDPEFTEEPVPNSIGKSPDSVLVTASVKEAAEAFLGFDYAPPTDSFL
notes: as for B2
- Km ([3]; other: SGK1, Standard Substrate = …): 4 µM
